Where “and” joins values, the source holds several entries; their conditions need not be identical. Equal entries are not always repeated.

What is called stoichiometry N is a count of units in the complex or per binding partner.

The data set deals with the molecule itself. Kind of data set: high-speed atomic force microscopy (HS-AFM); purified protein (approximately 3 nM) deposited on mica for 10 min, rinsed, imaged in 1/10 diluted PBS in tapping mode; oligomeric state from total pixel density, number of globules and behaviour in time-lapse images; molecules counted as monomer, dimer or trimer in broad fields; formation and dissociation seen in real time (reversible).

B1: EML4-ALK variant-1 (v1, E13:A20) (natural protein, human, UniProt Q9HC35 1-496, looked up)
chain: MDGFAGSLDDSISAASTSDVQDRLSALESRVQQQEDEITVLKAALADVLRRLAISEDHVASVKKSVSSKGQPSPRAVIPMSCITNGSGANRKPSHTSAVSIAGKETLSSAAKSGTEKKKEKPQGQREKKEESHSNDQSPQIRASPSPQPSSQPLQIHRQTPESKNATPTKSIKRPSPAEKSHNSWENSDDSRNKLSKIPSTPKLIPKVTKTADKHKDVIINQEGEYIKMFMRGRPITMFIPSDVDNYDDIRTELPPEKLKLEWAYGYRGKDCRANVYLLPTGKIVYFIASVVVLFNYEERTQRHYLGHTDCVKCLAIHPDKIRIATGQIAGVDKDGRPLQPHVRVWDSVTLSTLQIIGLGTFERGVGCLDFSKADSGVHLCIIDDSNEHMLTVWDWQKKAKGAEIKTTNEVVLAVEFHPTDANTIITCGKSHIFFWTWSGNSLTRKQGIFGKYEKPKFVQCLAFLGNGDVLTGDSGGVMLIWSKTTVEPTPGKGPKVYRRKHQELQAMQMELQSPEYKLSKLRTSTIMTDYNPNYCFAGKTSSISDLKEVPRKNITLIRGLGHGAFGEVYEGQVSGMPNDPSPLQVAVKTLPEVCSEQDELDFLMEALIISKFNHQNIVRCIGVSLQSLPRFILLELMAGGDLKSFLRETRPRPSQPSSLAMLDLLHVARDIACGCQYLEENHFIHRDIAARNCLLTCPGPGRVAKIGDFGMARDIYRASYYRKGGCAMLPVKWMPPEAFMEGIFTSKTDTWSFGVLLWEIFSLGYMPYPSKSNQEVLEFVTSGGRMDPPKNCPGPVYRIMTQCWQHQPEDRPNFAIILERIEYCTQDPDVINTALPIEYGPLVEEEEKVPVRPKDPEGVPPLLVSQQAKREEERSPAAPPPLPTTSSGKAAKKPTAAEISVRVPRGPAVEGGHVNMAFSQSNPPSELHKVHGSRNKPTSLWNPTYGSWFTEKPTKKNNPIAKKEPHDRGNLGLEGSCTVPPNVATGRLPGASLLLEPSSLTANMKEVPLFRLRHFPCGNVNYGYQQQGLPLEAATAPGAGHYEDTILKSKNSMNQPGP
notes: EML4, N-terminal part up to exon 13 (E13:A20): CC/TD domain, basic region, part of the TAPE domain (HELP, WD repeats); ALK, from exon 20 (A20) to the C-terminus, residues 1058-1620, holds the tyrosine kinase domain; ENLYFQ probably stays; also called EML4-ALK v1; source: Expi293F, transfected, purified (anti-FLAG M2 gel, TEV protease and His-tag beads, Superdex 200 SEC); not shown: His tag …
B1: the ratio of dimers stood at 15%; the ratio of trimers was found to be 9%; the “stoichiometry N” value was 2 and 3.

These data come from article doi:10.1101/2025.08.07.668011, “High-Speed AFM Reveals IDR-Mediated Structural Plasticity of EML4-ALK Modulated by ALK Inhibitors” (bioRxiv, 2025).
